# Source: patent US20250152729A1 (CANCER RESEARCH TECHNOLOGY, published 2025)
# Changes are numbered by the printed parent chain.
# B1: mouse 5E3 Fab fragment (Fab, V domains shown)
# VH: QVQLQQPGAELVMPGASVKMSCKASGYTFTDYWMHWVKQRPGQGLEWIGAIDTSDSYTSYNQKFKGKATLTVDESSSTAYMQLSSLTSEDSAVYYCARDYGNFYYYAMDYWGQGTSVTVSS
# VL: QAVVTQESALTTSPGETVTLTCRSSTGAVTTSNYANWVQEKPDHLFTGLIGGTNNRAPGVPARFSGSLIGDKAALTITGAQTEDEAIYFCALWYSNHWVFGGGTKLTVL
# notes: Fab from pEU1.3 Fab vector (human CH1 and part of hinge) with a whole human light chain constant; also called Mouse 5E3 (KD Fab)
# B2: C0120904 (antibody, V domains shown)
# VH: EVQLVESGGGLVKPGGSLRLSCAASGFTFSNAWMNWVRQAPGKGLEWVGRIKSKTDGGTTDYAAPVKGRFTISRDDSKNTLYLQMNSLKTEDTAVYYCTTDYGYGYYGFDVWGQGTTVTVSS
# VL: SYELTQPPSVSVSPGQTATISCSGNKLGDGYVSWYQQKPGQSPVLVIYQDSKRPSGIPQRYSGSNSGNTATLTISGTQAIDEADYYCQAWDSSTVVFGGGTKVTVL
# notes: un-purified fully human phage display IgG, primary screen; also called C0120904 un-purified human IgG1
# B3: 5Hg1-5Lg1 Fab fragment (Fab, V domains shown)
# VH: QVQLVQSGAEVKKPGASVKVSCKASGYTFTDYWMHWVRQAPGQGLEWMGAIDTSDSYTSYNQKFKGRVTMTRDTSTSTVYMELSSLRSEDTAVYYCARDYGNFYYYAMDYWGQGTLVTVSS
# VL: QAVVTQEPSLTVSPGGTVTLTCRSSTGAVTTSNYANWFQQKPGQAPRTLIYGTNNRAPWTPARFSGSLLGGKAALTLSGAQPEDEAEYYCALWYSNHWVFGGGTKLTVL
# notes: Fab from pEU1.3 Fab vector (human CH1 and part of hinge) with a whole human light chain constant
# B4: 5Hg2-5Lg2 Fab fragment (Fab, V domains shown)
# VH: B3 VH with G44R, M70I, T76A, V79A
# VL: B3 VL with S78L
# notes: as for B3
# How the values were obtained:
# [1] = biological target: T1, recombinant cynomolgus SEMA4A AviHis10, biotinylated (cynomolgus, UniProt Q9H3S1 32-677 (human entry), biotin on the Avi tag (BirA)); experiment: BLI (OctetRED), biotinylated SEMA4A on streptavidin tip, Fab as analyte, 1:1 model
# T1 construct: The text says amino acids 32-679 of G7NV79 with C-terminal Avi tag and His10 tag; also called Cyno SEMA4A AviHis10; cynoSEMA4A
# T1 chain: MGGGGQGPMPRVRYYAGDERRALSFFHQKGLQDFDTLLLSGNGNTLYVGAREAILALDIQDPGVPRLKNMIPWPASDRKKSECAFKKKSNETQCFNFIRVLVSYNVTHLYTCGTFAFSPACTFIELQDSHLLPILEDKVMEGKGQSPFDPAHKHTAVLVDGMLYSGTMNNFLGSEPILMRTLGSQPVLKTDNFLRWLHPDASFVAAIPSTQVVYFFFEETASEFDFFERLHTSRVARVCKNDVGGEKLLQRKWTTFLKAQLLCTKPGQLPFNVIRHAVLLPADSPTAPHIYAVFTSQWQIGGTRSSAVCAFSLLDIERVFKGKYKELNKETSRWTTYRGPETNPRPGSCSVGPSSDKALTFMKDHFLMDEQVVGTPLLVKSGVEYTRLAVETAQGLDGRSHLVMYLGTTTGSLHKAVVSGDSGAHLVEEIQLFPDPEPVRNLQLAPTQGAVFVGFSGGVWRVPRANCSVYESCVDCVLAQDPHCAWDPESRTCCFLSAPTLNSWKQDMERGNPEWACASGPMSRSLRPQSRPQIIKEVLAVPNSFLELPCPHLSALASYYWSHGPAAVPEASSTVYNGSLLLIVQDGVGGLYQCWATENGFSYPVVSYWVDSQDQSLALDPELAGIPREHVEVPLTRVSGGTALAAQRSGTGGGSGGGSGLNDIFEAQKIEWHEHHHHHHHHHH
# Experimental: (§1) An Octet Kinetics buffer (PBS containing 0.01% (v/v) BSA and 0.002% (v/v) Tween20) is typically used as the diluent buffer for the analyte samples and as the flow buffer during the dissociation phase. The experimental data is recorded as shift in interference pattern (nm) over time, which is directly proportional to the optical thickness at the biosensor tip, which in turn is an approximate measure of the mass of analyte bound. The proprietary Octet Data Analysis software package can then be used to process data and fit binding models to the data sets. Returned association (ka, M-1 s-1) and dissociation (kd, s-1) rate constants allow calculation of dissociation (KD, M) affinity constants.
# (§2) The affinity of binding between the analytes (humanised and phage display derived IgGs as human Alya IgG1s and Fabs) and human SEMA4A and cynomolgus SEMA4A, was estimated using assays in which the biotinylated SEMA4A antigen was captured on a streptavidin sensor tip. A fresh sensor tip was used for each measurement and no regeneration was used. A series of dilutions of the lead Fabs and human Alya IgG1s (3.25-240 nM) were individually placed in contact with the ligand surface for a sufficient amount of time to observe sensorgrams that could be fitted to an appropriate binding model with confidence (typically 5 minutes), followed by an appropriate length of dissociation time (typically 10 minutes). Blank reference (0 nM analyte) data were subtracted from each dataset to reduce the impact of any buffer artefacts or non-specific binding effects. A 1:1 binding model was then fitted simultaneously to the data from each analyte titration using the Octet Evaluation software (Table 8).
# [2] = biological target: T2, recombinant human SEMA4A AviHis10, biotinylated (human, UniProt Q9H3S1 33-683, biotin on the Avi tag (BirA)); experiment: as above
# T2 construct: The text says amino acids 33-683 of Q9H3S1 with C-terminal Avi tag and His10 tag; also called avi-SEMA4A-His10
# T2 sequence: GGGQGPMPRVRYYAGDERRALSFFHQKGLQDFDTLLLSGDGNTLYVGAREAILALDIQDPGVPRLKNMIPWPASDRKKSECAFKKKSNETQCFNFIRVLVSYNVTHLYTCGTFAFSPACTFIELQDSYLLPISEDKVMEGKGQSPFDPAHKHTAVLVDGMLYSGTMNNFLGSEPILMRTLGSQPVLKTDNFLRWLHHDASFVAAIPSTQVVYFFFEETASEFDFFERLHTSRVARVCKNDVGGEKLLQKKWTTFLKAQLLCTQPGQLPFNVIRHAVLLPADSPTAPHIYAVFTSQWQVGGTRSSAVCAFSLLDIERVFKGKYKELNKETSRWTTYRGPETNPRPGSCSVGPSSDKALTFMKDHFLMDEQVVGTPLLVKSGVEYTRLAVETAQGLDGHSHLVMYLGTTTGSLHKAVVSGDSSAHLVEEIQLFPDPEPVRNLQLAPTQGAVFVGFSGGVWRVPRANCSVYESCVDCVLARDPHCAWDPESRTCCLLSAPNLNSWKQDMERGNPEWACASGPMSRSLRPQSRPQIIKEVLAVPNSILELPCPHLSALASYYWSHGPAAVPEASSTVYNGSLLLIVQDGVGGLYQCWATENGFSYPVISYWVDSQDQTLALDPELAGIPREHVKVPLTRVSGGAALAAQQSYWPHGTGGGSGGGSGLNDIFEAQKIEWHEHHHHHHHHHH
# Experimental: as §1, §2
# [3] = biological target: T3, human SEMA4A expressed on cells (UniProt ID Q9H3S1, isoform 1) (human, UniProt Q9H3S1 33-761); experiment: direct binding of un-purified human IgG1 to MM.1S cells endogenously expressing human SEMA4A (Mirrorball, anti-human Alexa Fluor 647); single concentration, 1.56 % final
# T3 construct: Cell-surface SEMA4A: endogenous on MM.1S, NCI-H929 and Karpas-25 cells, or expi293 cells transfected with Origene SC323738; also called human Semaphorin4A; SEMA4A endogenously expressed on MM.1S cells
# T3 sequence: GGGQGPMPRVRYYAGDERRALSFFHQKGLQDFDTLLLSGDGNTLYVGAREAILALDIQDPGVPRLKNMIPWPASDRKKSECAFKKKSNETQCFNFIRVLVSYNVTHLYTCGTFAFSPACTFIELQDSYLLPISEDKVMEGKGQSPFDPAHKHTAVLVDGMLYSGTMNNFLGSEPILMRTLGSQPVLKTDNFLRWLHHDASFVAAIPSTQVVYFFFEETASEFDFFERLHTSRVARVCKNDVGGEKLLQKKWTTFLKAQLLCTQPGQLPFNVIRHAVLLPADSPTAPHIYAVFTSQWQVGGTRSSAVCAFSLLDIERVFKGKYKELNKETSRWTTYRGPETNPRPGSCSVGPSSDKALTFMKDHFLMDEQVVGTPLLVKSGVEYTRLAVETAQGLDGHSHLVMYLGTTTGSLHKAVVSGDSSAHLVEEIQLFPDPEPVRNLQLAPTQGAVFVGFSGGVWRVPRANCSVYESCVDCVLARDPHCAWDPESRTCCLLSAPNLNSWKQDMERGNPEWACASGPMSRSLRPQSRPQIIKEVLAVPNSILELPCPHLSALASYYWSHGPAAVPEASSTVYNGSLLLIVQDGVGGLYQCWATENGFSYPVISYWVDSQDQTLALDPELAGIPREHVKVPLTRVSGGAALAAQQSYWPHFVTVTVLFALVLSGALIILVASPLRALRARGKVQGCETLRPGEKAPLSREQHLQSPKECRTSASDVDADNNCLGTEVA
# Experimental: The MM.1S binding assay assessed the ability of the un-purified human IgG1s to bind directly to human SEMA4A that was endogenously expressed by MM.1S cells. Direct binding of a single concentration of un-purified human IgG1s to MM.1S cells was measured via an anti-human secondary labelled with Alexa Fluor 647 (Invitrogen, A21445). 10 μl undiluted un-purified IgG, contained in Expi293 expression medium (Gibco, UK, A1435101), were added to the assay plate (Greiner Bio-one, UK, 781906), followed by 10 μl 8 nM anti-human Alexa Fluor 647 and 20 μl MM.1S cell suspension containing 1,500 cells. The assay plate was incubated for 4 hours at room temperature in the dark prior to reading on a Mirrorball fluorescence cytometer (SPT Labtech, UK) using a 640 nm laser for excitation and measuring emission in the FL-4 channel (650-690 nm). Data was analysed as Count x median mean intensity (x FLU). All dilutions were performed in Hanks' balanced salt solution (Sigma, UK; cat: H8264) containing 0.1% (w/v) BSA (Sigma, UK; cat: A9576). Data were analysed and graphed using GraphPad Prism software (GraphPad Software, Inc, La Jolla, CA).
Binder,Kd [1] [nM],Kd [2] [nM],binding result [3]
B1,9,9,
B2,,,binds
B3,73,66,
B4,48,41,
